± gives the standard deviation of the averaged measurements.
Each sequence was assayed on Saccharomyces cerevisiae (assay: protein stability index of tFT-peptide fusion (C-terminal peptide) (PSI (0-1 scale)); higher = more stable (slower turnover)). Details: genetic background: das1 deletion; temperature: 30 C.
Method: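 MPS profiling in S. cerevisiae of the yeast C-terminome library: the last 12 aa of each annotated ORF are fused to the C-terminus of a sfGFP-mCherry timer, after a GGGS linker. Cells are FACS-sorted into 8 mCherry/sfGFP bins and deep-sequenced. PSI runs from 0 (unstable) to 1 (stable); wild type and das1Δ backgrounds, two technical replicates each.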
With QIEWVDINRVTY [RAD50 C-terminal 12 aa] the protein stability index was 0.732 ± 0.014. QIFSLPAVTYNK [REC102 C-terminal 12 aa] was tested, and the protein stability index was 0.693 ± 0.018. QIITISNANSHA [MBP1 C-terminal 12 aa] was tested, and the protein stability index was 0.705 ± 0.026. “QKENQYHPRRNQ [YML009W-B C-terminal 12 aa]” gave a protein stability index of 0.7123 ± 0.0032. QLEEELMDMLDD [FCP1 C-terminal 12 aa] gave a protein stability index of 0.674 ± 0.01. QLESDPPPCDDY [RIM8 C-terminal 12 aa] showed a protein stability index of 0.7171 ± 0.0053. Sequence QLKACQEAARQY [MIX17 C-terminal 12 aa] has a protein stability index of 0.675 ± 0.025. Work on QLKKSKVSVELE [MAK11 C-terminal 12 aa] yielded a protein stability index of 0.6803 ± 0.0023. QNADEESSSEEE [GCD6 C-terminal 12 aa] showed a protein stability index of 0.694 ± 0.011. QNEQLQMLSNSV [ATG31 C-terminal 12 aa] showed a protein stability index of 0.723 ± 0.028. In the case of QNLDENVWRTPI [SSP1 C-terminal 12 aa], the protein stability index is reported as 0.692 ± 0.011. Sequence QPYRSGTLGKRR [AIR2 C-terminal 12 aa] has a protein stability index of 0.674 ± 0.035. For QREEALISLNDW [REV3 C-terminal 12 aa], the protein stability index was 0.726 ± 0.016. Sequence QRELKKVDGTPI [RCI50 C-terminal 12 aa] has a protein stability index of 0.6851 ± 0.0065. In the case of QRIKQNNFLSQL [MRPL37 C-terminal 12 aa], the protein stability index is reported as 0.7 ± 0.016. QSADAAGVVKKH [GCN20 C-terminal 12 aa] was tested, and the protein stability index was 0.683 ± 0.011. Work on QSLLDSLAKLQK [NAB3 C-terminal 12 aa] yielded a protein stability index of 0.667 ± 0.009. With QSRYDNSRANRR [RAT1 C-terminal 12 aa] the protein stability index was 0.7257 ± 0.0043. Work on QTNSKPAAVSTN [PLN1 C-terminal 12 aa] yielded a protein stability index of 0.6745 ± 0.003. In the case of QTSAKISIRLLY [SER3 C-terminal 12 aa], the protein stability index is reported as 0.6607 ± 0.00096. Sequence QTSAKVSIRLLY [SER33 C-terminal 12 aa] has a protein stability index of 0.659 ± 0.034. Sequence RAGRSTLKETPQ [CCT6 C-terminal 12 aa] has a protein stability index of 0.673 ± 0.018. RAMNEDETLRNL [ORC1 C-terminal 12 aa] was tested, and the protein stability index was 0.6957 ± 0.0042. With RCGALSEKLVFL [FMT1 C-terminal 12 aa] the protein stability index was 0.694 ± 0.011. With RDLPSVLAKYGF [RRG1 C-terminal 12 aa] the protein stability index was 0.7236 ± 0.0048. RDNPILLEDEDP [ULP2 C-terminal 12 aa] showed a protein stability index of 0.708 ± 0.022. REDDDEPASLDF [PRI1 C-terminal 12 aa] showed a protein stability index of 0.697 ± 0.0043. Sequence REVLEQEGRRIE [NBL1 C-terminal 12 aa] has a protein stability index of 0.69 ± 0.0073. RILKDEIPIGED [BET3 C-terminal 12 aa] was tested, and the protein stability index was 0.702 ± 0.017. Work on RIYDFFQSQNWM [ADA2 C-terminal 12 aa] yielded a protein stability index of 0.7311 ± 0.0031. RKAAERDNMLTT [CTL1 C-terminal 12 aa] was tested, and the protein stability index was 0.704 ± 0.015. RKDEHIVQNIIN [YGR164W C-terminal 12 aa] was tested, and the protein stability index was 0.6993 ± 0.0033. RKFQPPPGFKRK [SMB1 C-terminal 12 aa] was tested, and the protein stability index was 0.724 ± 0.017. Work on RLKTGKKKGGPK [RRP14 C-terminal 12 aa] yielded a protein stability index of 0.6909 ± 0.0054.

Same assay, conditions: genetic background: wild type; temperature: 30 C
For QIEWVDINRVTY [RAD50 C-terminal 12 aa], the protein stability index was 0.735 ± 0.052. QIFSLPAVTYNK [REC102 C-terminal 12 aa] gave a protein stability index of 0.743 ± 0.055. QIITISNANSHA [MBP1 C-terminal 12 aa] showed a protein stability index of 0.688 ± 0.038. With “QKENQYHPRRNQ [YML009W-B C-terminal 12 aa]” the protein stability index was 0.691 ± 0.039. QLEEELMDMLDD [FCP1 C-terminal 12 aa] was tested, and the protein stability index was 0.6692 ± 0.0016. Work on QLESDPPPCDDY [RIM8 C-terminal 12 aa] yielded a protein stability index of 0.689 ± 0.039. QLKACQEAARQY [MIX17 C-terminal 12 aa] gave a protein stability index of 0.66 ± 0.031. In the case of QLKKSKVSVELE [MAK11 C-terminal 12 aa], the protein stability index is reported as 0.687 ± 0.047. In the case of QNADEESSSEEE [GCD6 C-terminal 12 aa], the protein stability index is reported as 0.6858 ± 0.0019. QNEQLQMLSNSV [ATG31 C-terminal 12 aa] showed a protein stability index of 0.673 ± 0.046. QNLDENVWRTPI [SSP1 C-terminal 12 aa] showed a protein stability index of 0.672 ± 0.032. For QPYRSGTLGKRR [AIR2 C-terminal 12 aa], the protein stability index was 0.6998 ± 0.004. Work on QREEALISLNDW [REV3 C-terminal 12 aa] yielded a protein stability index of 0.713 ± 0.025. With QRELKKVDGTPI [RCI50 C-terminal 12 aa] the protein stability index was 0.741 ± 0.0098. QRIKQNNFLSQL [MRPL37 C-terminal 12 aa] showed a protein stability index of 0.731 ± 0.05. QSADAAGVVKKH [GCN20 C-terminal 12 aa] showed a protein stability index of 0.726 ± 0.028. Work on QSLLDSLAKLQK [NAB3 C-terminal 12 aa] yielded a protein stability index of 0.678 ± 0.022. QSRYDNSRANRR [RAT1 C-terminal 12 aa] showed a protein stability index of 0.731 ± 0.099. QTNSKPAAVSTN [PLN1 C-terminal 12 aa] showed a protein stability index of 0.668 ± 0.02. With QTSAKISIRLLY [SER3 C-terminal 12 aa] the protein stability index was 0.582 ± 0.0062. In the case of QTSAKVSIRLLY [SER33 C-terminal 12 aa], the protein stability index is reported as 0.595 ± 0.0064. RAGRSTLKETPQ [CCT6 C-terminal 12 aa] showed a protein stability index of 0.692 ± 0.071. Sequence RAMNEDETLRNL [ORC1 C-terminal 12 aa] has a protein stability index of 0.746 ± 0.012. In the case of RCGALSEKLVFL [FMT1 C-terminal 12 aa], the protein stability index is reported as 0.697 ± 0.013. Work on RDLPSVLAKYGF [RRG1 C-terminal 12 aa] yielded a protein stability index of 0.703 ± 0.04. RDNPILLEDEDP [ULP2 C-terminal 12 aa] showed a protein stability index of 0.6747 ± 0.00092. REDDDEPASLDF [PRI1 C-terminal 12 aa] showed a protein stability index of 0.6533 ± 0.0064. In the case of REVLEQEGRRIE [NBL1 C-terminal 12 aa], the protein stability index is reported as 0.693 ± 0.054. With RILKDEIPIGED [BET3 C-terminal 12 aa] the protein stability index was 0.659 ± 0.0079. In the case of RIYDFFQSQNWM [ADA2 C-terminal 12 aa], the protein stability index is reported as 0.7058 ± 0.0047. RKAAERDNMLTT [CTL1 C-terminal 12 aa] showed a protein stability index of 0.706 ± 0.0072. RKDEHIVQNIIN [YGR164W C-terminal 12 aa] was tested, and the protein stability index was 0.681 ± 0.029. RKFQPPPGFKRK [SMB1 C-terminal 12 aa] gave a protein stability index of 0.74 ± 0.047. RLKTGKKKGGPK [RRP14 C-terminal 12 aa] was tested, and the protein stability index was 0.766 ± 0.13.

Reference: the supplement of paper PMC10724198
